This is an account of results in the supplement of paper PMC10567573.

± gives the standard deviation.

The nature of this series: protein stability index of a GFP-peptide fusion (GPS, HEK-293T) (PSI 1-6); higher = more stable.
Where [1] appears, read: treatment: DMSO, c terminus: a fixed tail appended.
[2] abbreviates: treatment: MLN4924 1 uM, 8 h, c terminus: a fixed tail appended.
Setting [3] is: treatment: DMSO, c terminus: native.
[4] abbreviates: treatment: MLN4924 1 uM, 8 h, c terminus: native.
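Also: 24-mer peptide tiles fused after GFP, lentivirally expressed, FACS-sorted into six equal bins by GFP/DsRed ratio, decoded by Illumina sequencing, PSI is the read-weighted mean bin number.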

In turn, RRSQQQQVPVVDFQAELRQAFLAE [SNURF] displayed a protein stability index under setting [1] of 3.84 ± 0.37 and a protein stability index under setting [2] of 3.86 ± 0.28.
The like results for RSGIQFGSWGSFQLPGLLNFGEFK [CLCN6] were, in that order, 2.29 ± 0.26 and 2.4 ± 0.3.
Sequence RVKLEEDPDGEEGSSIPWNHLPDP [ZNF24] came in with a protein stability index under setting [1] of 5.18 ± 0.2 and a protein stability index under setting [2] of 5.19 ± 0.17.
The like results for RYPVCKFPSLQVTAILIECGADVN [FEM1C] were, in that order, 2.71 ± 0.72 and 2.65 ± 0.61.
In the same order, the values of SAAWMKERTSPGAIHYCASTSEES [SPDEF] are 4.66 ± 0.13 and 4.72 ± 0.3.
In the same order, the values of SALASDRFNLILADTNSDRLFTVN [DCAF4] are 2.61 ± 0.18 and 2.69 ± 0.32.
In turn, SASDGSSFVVARYFPAGNVVNEGF [GLIPR2] displayed a protein stability index under setting [1] of 2.58 ± 0.29 and a protein stability index under setting [2] of 2.58 ± 0.35.
With SCKADVVELLLSHADCDRRSRIEA [FEM1B], the protein stability index under setting [1] was 2.42 ± 0.17 and the protein stability index under setting [2] was found to be 2.65 ± 0.29.
In the same order, the values of SCSQGSGILHYAHGDSQQTHLLKQ [CRY1] are 3.29 ± 0.16 and 3.31 ± 0.2.
The sequence SDDFCTFQMVLEGGVCCTVTLNFN [GFOD1] had a protein stability index under setting [1] of 2.79 ± 0.48 and a protein stability index under setting [2] of 3.02 ± 0.29.
Take SDLGFEVKCFNDLKAEELLLKIHE [CASP6]: the protein stability index was 2.48 ± 0.28 under setting [1] and 2.69 ± 0.37 under setting [2].
Regarding SDQETLRIHERLVAGSLAGAIAQS [SLC25A25], the protein stability index under setting [1] came to 3.87 ± 0.18 and the protein stability index under setting [2] worked out at 3.8 ± 0.43.
In the same order, the values of SEKKTISFQGCMAQLFMDHLFAGA [OR4A15] are 2.56 ± 0.73 and 2.66 ± 0.79.
With SELQKELKKVKTAHSNDGDCKTQ [DPCD], the protein stability index is 4.94 ± 0.27 under setting [3] and 5.28 ± 0.14 under setting [4].
For the sequence SELTSLCQSVLEDFNLCLFYLPSS [SMG5], the protein stability index turned out to be 2.65 ± 0.64 under setting [1] and 2.42 ± 0.39 under setting [2].
In the same order, the values of SEQCYYIFGDLCGNMANLSLHDHD [DVL3] are 2.96 ± 0.19 and 2.91 ± 0.27.
Turning to SESGSLGNSSGSDVTSLSSQLPDT [ISL2], the protein stability index stood at 5.43 ± 0.056 under setting [1] and 5.41 ± 0.14 under setting [2].
SFRGAFSNSEKAKNIFRIRFHDPS [NET1]: the protein stability index under setting [1] was found to be 2.59 ± 0.34 and the protein stability index under setting [2] amounted to 2.65 ± 0.12.
In the same order, the values of SGAFQWEELEEDIRKKLKDSGDVS [RHOBTB3] are 5.17 ± 0.27 and 5.2 ± 0.34.
In the same order, the values of SGGGGSSSNFHINVEESVDGQVVS [KRT15] are 5.26 ± 0.1 and 5.21 ± 0.26.
The like results for SGGPPPKRSAPSGPVRSSSGMGGR [RBMX] were, in that order, 4.59 ± 0.29 and 4.51 ± 0.21.
As for SGLGYIAGSKVKDMAGDWHWALRV [SPNS1], the protein stability index under setting [1] turned out to be 2.64 ± 0.74 and the protein stability index under setting [2] amounted to 2.38 ± 0.3.
In the same order, the values of SGSQMSHNAVTSHQRPGWPGQPHS [NCF4] are 3.95 ± 0.34 and 3.94 ± 0.29.
The like results for SGSSYCSFPPSLSSSSSSSPTSGS [LURAP1L] were, in that order, 4.32 ± 0.13 and 4.42 ± 0.17.
In the same order, the values of SGTFAPISDRYSPELRQLVLSLLS [NEK8] are 2.12 ± 0.21 and 2.25 ± 0.38.
Regarding SHHHHQSRGACTSHDPQSSRGSRR [KCNA4], the protein stability index runs as follows: under setting [1], 5.11 ± 0.26; under setting [2], 5.13 ± 0.15.
In turn, SHLQAAAQTPPRPGPPSAPPPPPK [SCNN1D] yielded a protein stability index under setting [1] of 5.09 ± 0.26 and a protein stability index under setting [2] of 5.22 ± 0.14.
Turning to SIKGSSGLGGGSSRTSCRLSGGLG [KRT17], the protein stability index under setting [1] stood at 3.39 ± 0.19 and the protein stability index under setting [2] stood at 3.42 ± 0.28.
For SITVSKVDKDQPSILNSCEDPVPG [FBXO34], the protein stability index stood at 5.25 ± 0.22 under setting [1] and 5.25 ± 0.12 under setting [2].
In the same order, the values of SKPSSDLLDLQPDFSSGGAAAAAA [SNAP91] are 4.99 ± 0.37 and 5.027 ± 0.049.
Regarding SKSSHPLIRSLFHGFLFMIFQIGV [SOAT1], the protein stability index came to 2.81 ± 0.84 under setting [1] and 2.72 ± 0.18 under setting [2].
For SLDWETFEQYCAWQLFLAHNIPLE [INTS3], the protein stability index turned out to be 2.3 ± 0.43 under setting [1] and 2.16 ± 0.32 under setting [2].
The like results for SLFVLDQNDNAPEILYPALPTDGS [PCDHGA10] were, in that order, 3.69 ± 0.33 and 3.84 ± 0.32.
The like results for SLHKHLTIRLNISDVNDNAPRFNQ [PCDHGC5] were, in that order, 2.32 ± 0.34 and 2.28 ± 0.27.
In the same order, the values of SLIPLILDLMKEWIAHSEKLPRKV [SPACA9] are 2.28 ± 0.46 and 2.02 ± 0.36.
Regarding SLLDELLEVDHIRTIYHMFIALLI [SOAT1], the protein stability index was found to be 2.01 ± 0.27 under setting [1] and 2.11 ± 0.56 under setting [2].
The like results for SLSEALDLIESDPDAWCDLSKFDL [MYBL2] were, in that order, 3.61 ± 0.23 and 4.13 ± 0.56.
The like results for SLSFEDELVYADDYIMDEDQSKLA [ESRRG] were, in that order, 5.43 ± 0.31 and 5.41 ± 0.27.
With SLSHSPGCSSTQGNGRPGRPSQYR [LCOR], the protein stability index is 4.44 ± 0.13 under setting [1] and 4.67 ± 0.22 under setting [2].
In the same order, the values of SLSLFGCTNIFYEEENPGGCEDEY [ZER1] are 3.97 ± 0.14 and 4.06 ± 0.23.
In the same order, the values of SMPQKFLGDKGLSDTPYDSSASYE [IKZF1] are 4.74 ± 0.088 and 4.73 ± 0.34.
On to SNPELDVLLLGSVDGRHLLRTLSR [DNAAF3], for which the protein stability index was 2.5 ± 0.28 under setting [1] and 2.56 ± 0.32 under setting [2].
In the same order, the values of SNVKVETQSDEENGRACEMNGEEC [IKZF1] are 5.75 ± 0.27 and 5.25 ± 0.36.
The like results for SPESESDHEHEEADLELSLPECLE [GNAS] were, in that order, 5.4 ± 0.38 and 5.57 ± 0.26.
The like results for SPIKKVRKSLALDIVDEDVKLMMS [MYBL2] were, in that order, 3.6 ± 0.34 and 3.68 ± 0.43.
Regarding SPMSAATLGGLNPSPSEVITPWTP [SMTNL2], the protein stability index by setting is: under setting [1], 4.44 ± 0.18; under setting [2], 4.46 ± 0.28.
In the same order, the values of SPPLHANTSLHVFVLDENDNAPAV [PCDHGC5] are 3.94 ± 0.23 and 3.81 ± 0.45.
The like results for SQLRLVCKRMDLVCQRMLNQGFLK [FBXO28] were, in that order, 2.38 ± 0.42 and 2.46 ± 0.2.
Regarding SRGGPPPPPPPPHNSGPPPPPARG [WASL], the protein stability index under setting [1] is 5.13 ± 0.26 and the protein stability index under setting [2] stood at 5.07 ± 0.07.
The like results for SRGSRRRRRQRSEKKKAHYRQSSF [KCNA4] were, in that order, 4.6 ± 0.29 and 4.8 ± 0.17.
In the same order, the values of SRGSSVSMSGGRFRCPTCRHEVIM [TRIM63] are 2.43 ± 0.56 and 2.4 ± 0.38.
SRKIAVEDENDLEELNNGEPQTEH [MIA2] yielded a protein stability index under setting [1] of 5.61 ± 0.13 and a protein stability index under setting [2] of 5.37 ± 0.29.
In the same order, the values of SRRQEKSAGDADPENGEIKPASKP [ELOA2] are 5.53 ± 0.19 and 5.69 ± 0.1.
Consider SRSAILIQHRRTHTDSKYEHAIAE [ZNF396], for which the protein stability index reads like this: under setting [1], 3.63 ± 0.15; under setting [2], 3.72 ± 0.19.
In the case of SSADDASAWSNIQEAPLQDDSCLN [FAN1], the protein stability index was found to be 5.26 ± 0.26 under setting [1] and 5.33 ± 0.27 under setting [2].
With SSCENKRADLVFIIDSSRSVNTHD [MATN2], the protein stability index reads like this: under setting [1], 2.81 ± 0.22; under setting [2], 2.92 ± 0.13.
As for SSIIHEIDSILGNKPYSKKDYRS [KCNAB2], the protein stability index runs as follows: under setting [3], 3.02 ± 0.37; under setting [4], 3.53 ± 0.28.
For SSSKRYTMSRSLDGASVNENHEIY [EPB41L3], the protein stability index turned out to be 4.11 ± 0.63 under setting [1] and 4 ± 0.45 under setting [2].
In the same order, the values of SSSRGSSHCDSPSPQEDGQIMFDV [BNIP3L] are 4.81 ± 0.26 and 4.91 ± 0.18.
The like results for SSSRNSHLVQHQHPNSRKSSAGGA [ZNF8] were, in that order, 4.71 ± 0.43 and 4.83 ± 0.23.
The like results for SSSSQIGNDSFQLQVTEDVNSSIK [CLCN6] were, in that order, 5.14 ± 0.06 and 4.87 ± 0.18.
In the case of SSSSSGVLMVGPNFRVGKKIGCGN [CSNK1G1], the protein stability index came to 3.58 ± 0.34 under setting [1] and 3.68 ± 0.11 under setting [2].
The like results for SSVEDLKAKFCSTVANDVMLRTGL [NETO1] were, in that order, 2.97 ± 0.14 and 3.07 ± 0.14.
In the same order, the values of SSVTAAVSGLLVGYELGIISGALL [SLC2A12] are 2.8 ± 0.2 and 2.82 ± 0.18.
On to STPVRREVTDKEQEFAARAAKQLE [EPB41L3], for which the protein stability index reads like this: under setting [1], 5.28 ± 0.2; under setting [2], 5.27 ± 0.21.
STQLEMQLEKPKPVKPVTFSTGIK [MNAT1]: the protein stability index by setting is: under setting [1], 4.28 ± 0.16; under setting [2], 4.43 ± 0.22.
Turning to SVKLRGSSLFMDTEKSGKREFDVR [WEE1], the protein stability index under setting [1] turned out to be 3.86 ± 0.36 and the protein stability index under setting [2] turned out to be 3.94 ± 0.095.
The like results for SVRMRRAEKSVAPSNTGSRTTSVR [NEK8] were, in that order, 4.62 ± 0.24 and 4.6 ± 0.26.
For SVSSCDQEHQSALEEAKQPKNDNV [SMOC2], the protein stability index reads like this: under setting [1], 5.38 ± 0.21; under setting [2], 5.64 ± 0.082.
The like results for SYFSGQGSDTGASLKLASSELERL [JUNB] were, in that order, 4.182 ± 0.04 and 4.427 ± 0.038.
With SYLIEKVKRKKNVLRLCCKKLKIF [PRAME], the protein stability index turned out to be 3.23 ± 0.36 under setting [1] and 3.22 ± 0.28 under setting [2].
In the same order, the values of SYPMRRSYRYKLLNWAYQQVQQNK [STEAP1] are 2.34 ± 0.19 and 2.36 ± 0.25.
